Results published in paper PMC7289862, “Real-time tracking reveals catalytic roles for the two DNA binding sites of Rad51” (Nature Communications, 2019).

Key:
Rad51-L2 = biological target: T1, Rad51-L2 (Schizosaccharomyces pombe, UniProt P36601 1-365, V295A); experiment: fluorescence anisotropy; 1 mM ATP, 3 mM MgCl2; Hill n 1.80; 30 mM HEPES-KOH pH 7.5, 100 mM KCl, 3 mM MgCl2, 1 mM DTT, 5% glycerol, 1 mM ATP, 25 C (EMSA: 2 mM ATP, 37 C, then 0.2% glutaraldehyde); settings: protein: recombinant; label: 5' TAMRA on strand 1; blunt
T1 sequence: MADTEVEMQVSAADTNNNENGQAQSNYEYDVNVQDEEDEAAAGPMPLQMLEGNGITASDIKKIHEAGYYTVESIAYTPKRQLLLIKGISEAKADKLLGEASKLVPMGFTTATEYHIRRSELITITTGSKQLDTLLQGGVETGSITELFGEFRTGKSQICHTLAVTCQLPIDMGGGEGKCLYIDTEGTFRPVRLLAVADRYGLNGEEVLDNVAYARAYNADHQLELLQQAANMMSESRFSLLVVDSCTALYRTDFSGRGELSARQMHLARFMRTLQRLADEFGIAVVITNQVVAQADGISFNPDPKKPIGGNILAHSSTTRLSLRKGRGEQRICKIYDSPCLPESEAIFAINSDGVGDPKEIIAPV

Rad51 wild-type = biological target: T2, Rad51 wild-type (Schizosaccharomyces pombe, UniProt P36601 1-365); experiment: fluorescence anisotropy; 1 mM ATP, 3 mM MgCl2; Hill n 1.99; main text prints 2.79 uM; 30 mM HEPES-KOH pH 7.5, 100 mM KCl, 3 mM MgCl2, 1 mM DTT, 5% glycerol, 1 mM ATP, 25 C (EMSA: 2 mM ATP, 37 C, then 0.2% glutaraldehyde); settings: protein: recombinant; label: 5' TAMRA on strand 1; blunt
T2 sequence: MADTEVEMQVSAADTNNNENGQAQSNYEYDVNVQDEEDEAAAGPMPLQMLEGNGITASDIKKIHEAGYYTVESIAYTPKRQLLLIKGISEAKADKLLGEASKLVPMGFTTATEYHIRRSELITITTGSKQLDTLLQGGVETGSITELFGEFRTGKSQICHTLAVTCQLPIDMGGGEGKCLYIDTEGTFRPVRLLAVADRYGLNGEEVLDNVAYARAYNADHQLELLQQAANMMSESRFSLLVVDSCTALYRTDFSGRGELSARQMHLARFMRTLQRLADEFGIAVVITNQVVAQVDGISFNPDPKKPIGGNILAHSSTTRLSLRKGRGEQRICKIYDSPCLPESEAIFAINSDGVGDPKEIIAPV

B1: [TAMRA]16A(-)_72 bp duplex (dsDNA)
DNA 1: AAATGAACATAAAGTAAATAAGTATAAGGATAATACAAAATAAGTAAATGAATAAACATAGAAAATAAAGTA
DNA 2: TACTTTATTTTCTATGTTTATTCATTTACTTATTTTGTATTATCCTTATACTTATTTACTTTATGTTCATTT
Kd (Rad51-L2): 3.52 ± 0.31 µM
Kd (Rad51 wild-type): 2.61 ± 0.2 µM
